Laboratory results reported in PMC9482650, “Quantitative fragmentomics allow affinity mapping of interactomes” (Nature Communications, 2022).

T1: APBA1_1, Q02410
T1 sequence (Q02410 651-752, limits assumed, looked up): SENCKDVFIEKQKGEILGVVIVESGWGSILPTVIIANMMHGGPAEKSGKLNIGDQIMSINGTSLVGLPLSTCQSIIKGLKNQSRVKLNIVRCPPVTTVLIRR

T2: GRIP1_2, Q9Y3R0
T2 sequence (Q9Y3R0 145-248, limits assumed, looked up): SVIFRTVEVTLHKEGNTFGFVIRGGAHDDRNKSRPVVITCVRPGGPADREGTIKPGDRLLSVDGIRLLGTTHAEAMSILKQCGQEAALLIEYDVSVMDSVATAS

T3: GRIP1_3, Q9Y3R0
T3 sequence (Q9Y3R0 247-346, limits assumed, looked up): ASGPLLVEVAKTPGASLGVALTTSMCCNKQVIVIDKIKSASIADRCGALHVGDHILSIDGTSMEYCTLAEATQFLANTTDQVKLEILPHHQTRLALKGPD

T4: GRIP1_7, Q9Y3R0
T4 sequence (Q9Y3R0 999-1096, limits assumed, looked up): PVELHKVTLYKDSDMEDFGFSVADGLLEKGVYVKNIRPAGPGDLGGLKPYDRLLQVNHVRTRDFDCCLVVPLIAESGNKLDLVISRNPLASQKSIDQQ

T5: LIN7A, O14910
T5 sequence (O14910 103-200, limits assumed, looked up): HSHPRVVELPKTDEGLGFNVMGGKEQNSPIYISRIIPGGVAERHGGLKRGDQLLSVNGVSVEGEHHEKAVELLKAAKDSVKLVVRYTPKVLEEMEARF

T6: MPDZ_10, O75970
T6 sequence (O75970 1624-1722, limits assumed, looked up): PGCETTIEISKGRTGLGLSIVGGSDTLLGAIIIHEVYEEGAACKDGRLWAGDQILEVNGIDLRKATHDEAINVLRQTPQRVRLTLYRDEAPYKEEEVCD

T7: NHERF3_1, Q5T2W1
T7 sequence (Q5T2W1 4-100, limits assumed, looked up): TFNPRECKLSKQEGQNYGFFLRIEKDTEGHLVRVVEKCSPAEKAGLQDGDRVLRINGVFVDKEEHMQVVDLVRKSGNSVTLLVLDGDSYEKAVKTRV

T8: PCLO, Q9Y6V0
T8 sequence (Q9Y6V0 4491-4600, limits assumed, looked up): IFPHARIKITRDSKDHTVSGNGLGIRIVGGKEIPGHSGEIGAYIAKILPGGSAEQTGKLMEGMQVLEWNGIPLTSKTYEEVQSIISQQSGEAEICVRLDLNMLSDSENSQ

T9: RADIL, Q96JH8
T9 sequence (Q96JH8 971-1071, limits assumed, looked up): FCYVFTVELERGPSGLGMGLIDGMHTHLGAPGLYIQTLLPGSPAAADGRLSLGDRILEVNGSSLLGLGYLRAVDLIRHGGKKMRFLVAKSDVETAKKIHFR

T10: TIAM2, Q8IVF5
T10 sequence (Q8IVF5 885-986, limits assumed, looked up): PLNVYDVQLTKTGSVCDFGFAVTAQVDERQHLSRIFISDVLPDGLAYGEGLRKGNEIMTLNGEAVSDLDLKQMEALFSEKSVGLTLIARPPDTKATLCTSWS


Experiments:
Experiment in all cases: holdup assay
Design in all cases: key: below the threshold = too weak to quantify, mostly under pKd 3.1 to 4
Settings in all cases: plain residues with an end cap or a label only (N-terminal biotin on a linker: ado-ado)
AHNAK1, Q09666 = molecular target: AHNAK1, Q09666
AHNAK1, Q09666, sequence (Q09666 4-100): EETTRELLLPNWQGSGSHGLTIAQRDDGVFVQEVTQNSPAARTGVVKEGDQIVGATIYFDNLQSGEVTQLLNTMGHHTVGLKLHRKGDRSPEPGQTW

APBA1_1, Q02410 = molecular target: T1, APBA1_1, Q02410
DLG1_1, Q12959 = molecular target: DLG1_1, Q12959
DLG1_3, Q12959 = molecular target: DLG1_3, Q12959
DLG2_2, Q15700 = molecular target: DLG2_2, Q15700
DLG2_3, Q15700 = molecular target: DLG2_3, Q15700
GIPC2, Q8TF65 = molecular target: GIPC2, Q8TF65
GIPC2, Q8TF65, sequence (Q8TF65 112-203): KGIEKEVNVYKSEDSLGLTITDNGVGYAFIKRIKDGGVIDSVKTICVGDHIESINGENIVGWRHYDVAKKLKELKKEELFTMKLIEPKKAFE

GOPC, Q9HD26 = molecular target: GOPC, Q9HD26
GORASP2, Q9H8Y8 = molecular target: GORASP2, Q9H8Y8
GRID2IP_1, A4D2P6 = molecular target: GRID2IP_1, A4D2P6
GRID2IP_1, A4D2P6, sequence (A4D2P6 1-87): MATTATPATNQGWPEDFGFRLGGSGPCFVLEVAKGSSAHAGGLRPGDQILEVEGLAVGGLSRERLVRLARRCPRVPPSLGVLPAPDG

GRIP1_2, Q9Y3R0 = molecular target: T2, GRIP1_2, Q9Y3R0
GRIP1_3, Q9Y3R0 = molecular target: T3, GRIP1_3, Q9Y3R0
GRIP1_7, Q9Y3R0 = molecular target: T4, GRIP1_7, Q9Y3R0
GRIP2_7, Q9C0E4 = molecular target: GRIP2_7, Q9C0E4
GRIP2_7, Q9C0E4, sequence (Q9C0E4 934-1023): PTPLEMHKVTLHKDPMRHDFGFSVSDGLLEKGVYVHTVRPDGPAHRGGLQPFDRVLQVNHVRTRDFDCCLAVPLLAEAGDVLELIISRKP

Inadl_1, Q8NI35 = molecular target: Inadl_1, Q8NI35
Inadl_1, Q8NI35, sequence (Q8NI35 113-229): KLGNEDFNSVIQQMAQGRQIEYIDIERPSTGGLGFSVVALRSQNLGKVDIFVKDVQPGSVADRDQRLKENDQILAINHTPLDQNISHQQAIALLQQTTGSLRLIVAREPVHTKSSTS

LDB3, O75112 = molecular target: LDB3, O75112
LDB3, O75112, sequence (O75112 1-94): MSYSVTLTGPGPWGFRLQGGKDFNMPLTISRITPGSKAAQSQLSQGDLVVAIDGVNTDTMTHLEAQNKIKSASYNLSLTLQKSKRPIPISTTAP

LIN7A, O14910 = molecular target: T5, LIN7A, O14910
MAGI2_2, Q86UL8 = molecular target: MAGI2_2, Q86UL8
MAGI2_2, Q86UL8, sequence (Q86UL8 410-522): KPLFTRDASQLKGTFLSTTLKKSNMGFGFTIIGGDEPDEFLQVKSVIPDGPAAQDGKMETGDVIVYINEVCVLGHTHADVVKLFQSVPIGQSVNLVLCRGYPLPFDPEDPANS

MAGI2_3, Q86UL8 = molecular target: MAGI2_3, Q86UL8
MAGI2_3, Q86UL8, sequence (Q86UL8 600-682): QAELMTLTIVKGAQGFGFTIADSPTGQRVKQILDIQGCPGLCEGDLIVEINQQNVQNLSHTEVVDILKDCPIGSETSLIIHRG

MPDZ_10, O75970 = molecular target: T6, MPDZ_10, O75970
NHERF3_1, Q5T2W1 = molecular target: T7, NHERF3_1, Q5T2W1
NHERF4_4, Q86UT5 = molecular target: NHERF4_4, Q86UT5
NHERF4_4, Q86UT5, sequence (Q86UT5 464-550): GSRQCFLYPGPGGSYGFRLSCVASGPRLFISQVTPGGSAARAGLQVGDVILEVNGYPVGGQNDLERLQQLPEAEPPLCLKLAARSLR

PCLO, Q9Y6V0 = molecular target: T8, PCLO, Q9Y6V0
RADIL, Q96JH8 = molecular target: T9, RADIL, Q96JH8
SCRIB_3, Q14160 = molecular target: SCRIB_3, Q14160
SCRIB_3, Q14160, sequence (Q14160 999-1103): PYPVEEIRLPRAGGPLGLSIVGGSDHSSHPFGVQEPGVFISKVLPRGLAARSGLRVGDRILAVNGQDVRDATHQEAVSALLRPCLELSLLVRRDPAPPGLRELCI

TIAM2, Q8IVF5 = molecular target: T10, TIAM2, Q8IVF5
TJP1_2, Q07157 = molecular target: TJP1_2, Q07157
TJP1_2, Q07157, sequence (Q07157 181-274): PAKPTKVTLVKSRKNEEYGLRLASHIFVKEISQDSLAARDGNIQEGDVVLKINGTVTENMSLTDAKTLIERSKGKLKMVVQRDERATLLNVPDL

TJP1_3, Q07157 = molecular target: TJP1_3, Q07157
TJP1_3, Q07157, sequence (Q07157 416-512): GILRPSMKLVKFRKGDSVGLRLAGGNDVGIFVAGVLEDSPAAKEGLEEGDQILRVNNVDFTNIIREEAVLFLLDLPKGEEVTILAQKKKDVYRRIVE

| Binder | pKd (AHNAK1, Q09666) | pKd (APBA1_1, Q02410) | pKd (DLG1_1, Q12959) | pKd (DLG1_3, Q12959) | pKd (DLG2_2, Q15700) | pKd (DLG2_3, Q15700) | pKd (GIPC2, Q8TF65) | pKd (GOPC, Q9HD26) | pKd (GORASP2, Q9H8Y8) | pKd (GRID2IP_1, A4D2P6) | pKd (GRIP1_2, Q9Y3R0) | pKd (GRIP1_3, Q9Y3R0) | pKd (GRIP1_7, Q9Y3R0) | pKd (GRIP2_7, Q9C0E4) | pKd (Inadl_1, Q8NI35) | pKd (LDB3, O75112) | pKd (LIN7A, O14910) | pKd (MAGI2_2, Q86UL8) | pKd (MAGI2_3, Q86UL8) | pKd (MPDZ_10, O75970) | further results |
| --- | --- | --- | --- | --- | --- | --- | --- | --- | --- | --- | --- | --- | --- | --- | --- | --- | --- | --- | --- | --- | --- |
| GEDRSPPTAL [MKNK1, Q9BUB5] | below the threshold | below the threshold | below the threshold | below the threshold | below the threshold | below the threshold | below the threshold | 3.5 | below the threshold | below the threshold | below the threshold | below the threshold | below the threshold | below the threshold | below the threshold | below the threshold | below the threshold | below the threshold | below the threshold | below the threshold | pKd (NHERF3_1, Q5T2W1): 3.71; pKd (NHERF4_4, Q86UT5): below the threshold; pKd (PCLO, Q9Y6V0): below the threshold; pKd (RADIL, Q96JH8): below the threshold; pKd (SCRIB_3, Q14160): 4.57; pKd (TIAM2, Q8IVF5): below the threshold; pKd (TJP1_2, Q07157): below the threshold; pKd (TJP1_3, Q07157): below the threshold |
| NNNVVKVDSV [MTNR1A, P48039] | below the threshold | below the threshold | below the threshold | below the threshold | below the threshold | 3.54 | below the threshold | below the threshold | below the threshold | below the threshold | below the threshold | below the threshold | below the threshold | below the threshold | below the threshold | below the threshold | below the threshold | below the threshold | below the threshold | 3.68 | pKd (NHERF3_1, Q5T2W1): below the threshold; pKd (NHERF4_4, Q86UT5): below the threshold; pKd (PCLO, Q9Y6V0): below the threshold; pKd (RADIL, Q96JH8): below the threshold; pKd (SCRIB_3, Q14160): below the threshold; pKd (TIAM2, Q8IVF5): 3.77; pKd (TJP1_2, Q07157): below the threshold; pKd (TJP1_3, Q07157): below the threshold |

Second part, led by results:

| pKd (AHNAK1, Q09666) | pKd (APBA1_1, Q02410) | pKd (DLG1_1, Q12959) | pKd (DLG1_3, Q12959) | pKd (DLG2_2, Q15700) | pKd (DLG2_3, Q15700) | pKd (GIPC2, Q8TF65) | pKd (GOPC, Q9HD26) | pKd (GORASP2, Q9H8Y8) | pKd (GRID2IP_1, A4D2P6) | pKd (GRIP1_2, Q9Y3R0) | pKd (GRIP1_3, Q9Y3R0) | pKd (GRIP1_7, Q9Y3R0) | pKd (GRIP2_7, Q9C0E4) | pKd (Inadl_1, Q8NI35) | pKd (LDB3, O75112) | pKd (LIN7A, O14910) | pKd (MAGI2_2, Q86UL8) | pKd (MAGI2_3, Q86UL8) | pKd (MPDZ_10, O75970) | Binder | further results |
| --- | --- | --- | --- | --- | --- | --- | --- | --- | --- | --- | --- | --- | --- | --- | --- | --- | --- | --- | --- | --- | --- |
| below the threshold | below the threshold | 3.58 | below the threshold | 3.95 | 3.62 | below the threshold | below the threshold | below the threshold | below the threshold | below the threshold | below the threshold | below the threshold | below the threshold | below the threshold | below the threshold | below the threshold | below the threshold | below the threshold | below the threshold | SVTSERETNI [SLC16A7, O60669] | pKd (NHERF3_1, Q5T2W1): 3.49; pKd (NHERF4_4, Q86UT5): below the threshold; pKd (PCLO, Q9Y6V0): below the threshold; pKd (RADIL, Q96JH8): below the threshold; pKd (SCRIB_3, Q14160): 4.93; pKd (TIAM2, Q8IVF5): 3.83; pKd (TJP1_2, Q07157): below the threshold; pKd (TJP1_3, Q07157): below the threshold |
| below the threshold | below the threshold | below the threshold | below the threshold | below the threshold | 3.63 | 4.08 | below the threshold | 3.66 | below the threshold | below the threshold | below the threshold | below the threshold | below the threshold | below the threshold | below the threshold | below the threshold | below the threshold | below the threshold | below the threshold | LPAVCYDIDI [PTTG2, Q9NZH5] | pKd (NHERF3_1, Q5T2W1): below the threshold; pKd (NHERF4_4, Q86UT5): 4.9; pKd (PCLO, Q9Y6V0): below the threshold; pKd (RADIL, Q96JH8): below the threshold; pKd (SCRIB_3, Q14160): 4.29; pKd (TIAM2, Q8IVF5): 3.87; pKd (TJP1_2, Q07157): 4.32; pKd (TJP1_3, Q07157): below the threshold |
